Assay results from PMC10491584, “Structural convergence endows nuclear transport receptor Kap114p with a transcriptional repressor function toward TATA-binding protein” (Nature Communications, 2023).

Experiments:
Kap114p (Q597A) = biological target: T1, Kap114p (Q597A) (S. cerevisiae, UniProt P53067 1-1004, Q597A); assay: ITC; MicroCal iTC200, 25 °C, 20 mM HEPES pH 7.4, 150 mM NaCl; high concentration: 50 µM wild type or mutant Kap114p in the sample cell, 500 µM wild type or mutant yTBPC in the syringe; triplicate; details: both partners purified
T1 construct: Kap114p, S. cerevisiae, full length with Q597A; also called GST-Kap114p (Q597); source: E. coli Rosetta, purified (GST resin, MonoQ, Superdex 200)
T1 sequence (looked up): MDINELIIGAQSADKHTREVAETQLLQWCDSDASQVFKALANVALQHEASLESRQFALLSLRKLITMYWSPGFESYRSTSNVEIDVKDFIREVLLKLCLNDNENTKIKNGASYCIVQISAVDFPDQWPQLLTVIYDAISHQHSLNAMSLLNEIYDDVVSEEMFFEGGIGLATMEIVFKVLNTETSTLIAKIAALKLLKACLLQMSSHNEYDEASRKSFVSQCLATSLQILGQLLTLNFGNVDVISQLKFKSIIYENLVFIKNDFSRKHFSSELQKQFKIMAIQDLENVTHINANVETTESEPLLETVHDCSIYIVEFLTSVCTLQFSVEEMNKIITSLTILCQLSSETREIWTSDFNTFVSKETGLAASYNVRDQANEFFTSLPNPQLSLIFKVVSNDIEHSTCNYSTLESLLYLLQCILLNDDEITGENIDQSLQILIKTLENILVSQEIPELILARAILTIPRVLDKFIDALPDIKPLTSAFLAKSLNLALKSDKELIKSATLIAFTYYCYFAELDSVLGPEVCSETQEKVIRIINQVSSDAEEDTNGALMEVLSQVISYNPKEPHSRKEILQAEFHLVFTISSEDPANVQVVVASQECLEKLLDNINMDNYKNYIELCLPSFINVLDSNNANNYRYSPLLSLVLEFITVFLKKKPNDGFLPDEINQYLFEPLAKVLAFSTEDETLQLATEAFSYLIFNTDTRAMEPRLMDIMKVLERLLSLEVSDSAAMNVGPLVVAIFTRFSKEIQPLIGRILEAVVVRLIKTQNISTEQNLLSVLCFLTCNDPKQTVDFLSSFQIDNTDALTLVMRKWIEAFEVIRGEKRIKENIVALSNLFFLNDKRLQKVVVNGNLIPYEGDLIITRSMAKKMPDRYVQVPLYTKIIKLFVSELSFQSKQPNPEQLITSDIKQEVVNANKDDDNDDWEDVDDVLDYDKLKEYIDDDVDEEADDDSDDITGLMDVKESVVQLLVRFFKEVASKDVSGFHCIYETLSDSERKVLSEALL

Kap114pΔ(Y939) = biological target: T2, Kap114pΔ(Y939) (S. cerevisiae, UniProt P53067 1-1004, ΔY939); assay: as above; details: both partners purified
T2 construct: Kap114p, S. cerevisiae, full length with residue Y939 deleted; also called GST-Kap114p (Δ939); source: E. coli Rosetta, purified (GST resin, MonoQ, Superdex 200)
T2 sequence (looked up): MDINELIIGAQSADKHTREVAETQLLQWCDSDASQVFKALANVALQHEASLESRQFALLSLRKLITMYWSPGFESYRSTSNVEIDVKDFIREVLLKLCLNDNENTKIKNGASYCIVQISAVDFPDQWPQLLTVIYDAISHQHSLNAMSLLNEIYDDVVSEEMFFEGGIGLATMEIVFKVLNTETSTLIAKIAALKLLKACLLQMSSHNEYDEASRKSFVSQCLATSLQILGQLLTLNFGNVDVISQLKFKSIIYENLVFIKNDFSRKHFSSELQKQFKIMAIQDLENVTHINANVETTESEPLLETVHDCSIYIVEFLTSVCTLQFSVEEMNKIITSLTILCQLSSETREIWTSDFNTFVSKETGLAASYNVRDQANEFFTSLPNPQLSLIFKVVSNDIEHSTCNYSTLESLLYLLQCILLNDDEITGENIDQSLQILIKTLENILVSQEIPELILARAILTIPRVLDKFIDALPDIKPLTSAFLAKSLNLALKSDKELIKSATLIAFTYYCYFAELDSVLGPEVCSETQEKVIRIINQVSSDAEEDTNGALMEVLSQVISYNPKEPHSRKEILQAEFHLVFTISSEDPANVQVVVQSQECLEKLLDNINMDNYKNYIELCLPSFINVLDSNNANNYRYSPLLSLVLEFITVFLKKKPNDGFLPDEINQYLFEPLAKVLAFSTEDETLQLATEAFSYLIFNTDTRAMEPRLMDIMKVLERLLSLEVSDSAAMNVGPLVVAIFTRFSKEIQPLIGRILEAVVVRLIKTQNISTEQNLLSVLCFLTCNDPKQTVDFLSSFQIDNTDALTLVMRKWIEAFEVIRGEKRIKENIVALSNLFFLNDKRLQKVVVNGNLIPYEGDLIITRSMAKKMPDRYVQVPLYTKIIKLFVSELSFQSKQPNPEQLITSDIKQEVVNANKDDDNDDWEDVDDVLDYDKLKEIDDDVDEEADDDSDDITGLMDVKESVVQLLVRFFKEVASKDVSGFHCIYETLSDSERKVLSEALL

B1: yTBP^C wild type (core domain of yeast TATA-box binding protein, a.a. 61-240) (domain or fragment, S. cerevisiae, UniProt P13393 61-240, looked up)
chain: SGIVPTLQNIVATVTLGCRLDLKTVALHARNAEYNPKRFAAVIMRIREPKTTALIFASGKMVVTGAKSEDDSKLASRKYARIIQKIGFAAKFTDFKIQNIVGSCDVKFPIRLEGLAFSHGTFSSYEPELFPGLIYRMVKPKIVLLIFVSGKIVLTGAKQREEIYQAFEAIYPVLSEFRKM
notes: modified pET28a, 6xHis tag followed by a PreScission site; also called yTBPC WT; His-yTBP (61-240); source: E. coli Rosetta, purified (Ni-NTA, HiTrap SP, Superdex 75); not shown: His6, N-terminal, cleaved
Kap114p (Q597A)
  Kd: 7.4 nM
Kap114pΔ(Y939)
  Kd: 37.1 nM
